Measurements reported in publication PMC3774411, “Characterization of the Human Sigma-1 Receptor Chaperone Domain Structure and Binding Immunoglobulin Protein (BiP) Interactions*” (The Journal of Biological Chemistry, 2013).

Key:
[1] = target: T1, human binding immunoglobulin protein (BiP), residues 26-654 ("full length") (human, UniProt P11021 26-654); experiment: NMR titration; 15N-labelled S1R(cd) (~250 uM) in DPC micelles titrated with unlabelled BiP constructs; 1H,15N SOFAST-HMQC, cross-peak intensities and chemical shifts; 100 mM NaCl, 30 mM DPC, 5 mM 2-mercaptoethanol, 20 mM HEPES pH 6.5, 37 C; full-length BiP without and with 2.5 mM calcium chloride, NBD without calcium, SBD with 2.5 mM calcium; conditions: both partners purified
T1 construct: Constructs from Herwig Schueler, Karolinska Institutet; also called full-length BiP; source: E. coli BL21(DE3), purified (ammonium sulfate precipitation, nickel chromatography, Q-Sepharose, Superdex200)

[2] = target: T2, isolated nucleotide binding domain of human BiP (residues 26-410) (human, UniProt P11021 26-410); experiment: as above; conditions: both partners purified
T2 construct: also called NBD; BiP NBD; source: E. coli BL21(DE3), purified (ammonium sulfate precipitation, nickel chromatography, Q-Sepharose, Superdex200)
T2 sequence (P11021 26-410): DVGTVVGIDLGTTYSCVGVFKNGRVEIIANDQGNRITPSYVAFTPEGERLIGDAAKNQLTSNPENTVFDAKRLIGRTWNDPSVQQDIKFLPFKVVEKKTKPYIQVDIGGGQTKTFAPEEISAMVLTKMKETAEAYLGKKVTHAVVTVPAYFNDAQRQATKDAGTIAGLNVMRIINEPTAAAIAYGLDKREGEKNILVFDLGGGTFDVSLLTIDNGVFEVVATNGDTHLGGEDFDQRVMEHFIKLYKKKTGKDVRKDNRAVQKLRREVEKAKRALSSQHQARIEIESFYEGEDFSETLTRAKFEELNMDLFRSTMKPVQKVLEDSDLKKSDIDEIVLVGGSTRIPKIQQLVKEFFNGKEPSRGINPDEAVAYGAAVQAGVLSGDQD

T1 sequence (P11021 26-654): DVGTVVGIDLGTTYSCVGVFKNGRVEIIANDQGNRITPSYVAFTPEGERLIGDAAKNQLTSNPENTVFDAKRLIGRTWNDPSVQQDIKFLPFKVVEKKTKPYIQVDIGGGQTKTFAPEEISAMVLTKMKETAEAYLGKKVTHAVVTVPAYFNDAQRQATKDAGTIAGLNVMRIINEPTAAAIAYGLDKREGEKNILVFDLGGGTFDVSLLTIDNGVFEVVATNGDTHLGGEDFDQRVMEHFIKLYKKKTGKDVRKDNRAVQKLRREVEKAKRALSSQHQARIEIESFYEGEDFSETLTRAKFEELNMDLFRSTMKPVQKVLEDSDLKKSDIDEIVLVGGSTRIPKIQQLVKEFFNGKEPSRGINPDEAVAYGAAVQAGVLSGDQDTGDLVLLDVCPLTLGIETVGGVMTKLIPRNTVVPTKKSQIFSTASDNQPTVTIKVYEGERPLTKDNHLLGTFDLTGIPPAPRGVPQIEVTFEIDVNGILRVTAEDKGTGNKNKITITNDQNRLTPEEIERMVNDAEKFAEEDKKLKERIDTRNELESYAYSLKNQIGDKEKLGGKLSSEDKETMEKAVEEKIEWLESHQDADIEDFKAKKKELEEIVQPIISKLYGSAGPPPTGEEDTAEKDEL

B1: human sigma-1 receptor chaperone domain (residues 112-223) (domain or fragment, UniProt Q99720 112-223, looked up)
chain: GSRGHSGRYWAEISDTIISGTFHQWREGTTKSEVFYPGETVVHGPGEATAVEWGPNTWMVEYGRGVIPSTLAFALADTVFSTQDFLTLFYTLRSYARGLRLELTTYLFGQDP
notes: sigma-1 receptor (S1R), human, residues 112-223 (chaperone domain; 223 is the C-terminal residue); 15N-labelled for the titrations; No cleavage of the tag is described; also called S1R(cd); S1R chaperone domain
B1: binds [1]; binds [2].
